37 molecules from PMC10786891, “Massively parallel profiling of RNA-targeting CRISPR-Cas13d” can be followed below.

Substitutions are numbered along the chain they refer to. Names may count otherwise.

Sequences and labels used below:
T1: EsCas13d, nuclease-dead (Eubacterium siraeum, UniProt B0MS50, R295A;H300A;R849A;H854A)
T1 sequence: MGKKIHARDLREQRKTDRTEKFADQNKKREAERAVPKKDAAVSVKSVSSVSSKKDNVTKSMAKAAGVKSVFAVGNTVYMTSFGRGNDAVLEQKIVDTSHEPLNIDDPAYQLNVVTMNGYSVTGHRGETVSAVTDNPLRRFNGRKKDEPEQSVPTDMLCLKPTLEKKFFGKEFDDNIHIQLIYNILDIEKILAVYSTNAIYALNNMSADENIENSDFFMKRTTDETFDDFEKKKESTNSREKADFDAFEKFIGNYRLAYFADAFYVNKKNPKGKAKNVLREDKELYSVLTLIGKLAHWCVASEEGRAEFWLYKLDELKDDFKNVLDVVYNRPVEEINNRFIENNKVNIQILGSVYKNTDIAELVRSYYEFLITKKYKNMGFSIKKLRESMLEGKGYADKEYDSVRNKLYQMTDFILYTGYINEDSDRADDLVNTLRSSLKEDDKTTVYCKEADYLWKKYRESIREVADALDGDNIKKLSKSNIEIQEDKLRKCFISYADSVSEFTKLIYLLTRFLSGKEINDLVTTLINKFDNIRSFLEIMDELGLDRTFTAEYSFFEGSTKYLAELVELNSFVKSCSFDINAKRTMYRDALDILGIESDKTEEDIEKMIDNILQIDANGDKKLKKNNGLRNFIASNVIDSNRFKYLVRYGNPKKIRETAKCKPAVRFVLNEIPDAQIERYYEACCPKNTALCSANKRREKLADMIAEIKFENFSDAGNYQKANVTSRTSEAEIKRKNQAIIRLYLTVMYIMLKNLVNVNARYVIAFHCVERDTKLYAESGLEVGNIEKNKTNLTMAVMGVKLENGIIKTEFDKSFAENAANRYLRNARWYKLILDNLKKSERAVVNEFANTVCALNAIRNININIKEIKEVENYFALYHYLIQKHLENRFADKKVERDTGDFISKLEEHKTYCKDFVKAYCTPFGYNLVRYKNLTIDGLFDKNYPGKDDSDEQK

B1: target 1 MT 5'PFS AGC 3'PFS UAG (mixed)
RNA 1: CACCCGUGCAAAAAUGCAGGGGUCUAAAACUGAGCGGAUAACCUCUCUAUGG
RNA 2: GGGAAUGGAUCCACAUCUACGAAUUCAGCCCAUAGAGAGGUUAUCCGCUCAUAGAGAUCGGAAGAGCACACGU
B2: target 1 MT 5'PFS UAU 3'PFS ACC (mixed)
RNA 1: B1 RNA 1
RNA 2: B1 RNA 2 with A27U, G28A, C29U, U52A, A53C, G54C
B3: target 1 MT 5'PFS GCC 3'PFS ACG (mixed)
RNA 1: B1 RNA 1
RNA 2: B1 RNA 2 with A27G, G28C, U52A, A53C
B4: target 1 MT 5'PFS UCA 3'PFS UGU (mixed)
RNA 1: B1 RNA 1
RNA 2: B1 RNA 2 with A27U, G28C, C29A, A53G, G54U
B5: target 1 MT 5'PFS GCU 3'PFS UGC (mixed)
RNA 1: B1 RNA 1
RNA 2: B1 RNA 2 with A27G, G28C, C29U, A53G, G54C
B6: target 1 MT 5'PFS CUU 3'PFS UCU (mixed)
RNA 1: B1 RNA 1
RNA 2: B1 RNA 2 with A27C, G28U, C29U, A53C, G54U
B7: target 1 MT 5'PFS CUU 3'PFS AAA (mixed)
RNA 1: B1 RNA 1
RNA 2: B1 RNA 2 with A27C, G28U, C29U, U52A, G54A
B8: target 1 MT 5'PFS GCU 3'PFS AAC (mixed)
RNA 1: B1 RNA 1
RNA 2: B1 RNA 2 with A27G, G28C, C29U, U52A, G54C
B9: target 1 MT 5'PFS UAG 3'PFS AGU (mixed)
RNA 1: B1 RNA 1
RNA 2: B1 RNA 2 with A27U, G28A, C29G, U52A, A53G, G54U
B10: target 1 MT 5'PFS ACC 3'PFS CUC (mixed)
RNA 1: B1 RNA 1
RNA 2: B1 RNA 2 with G28C, U52C, A53U, G54C
B11: target 1 MT 5'PFS GGG 3'PFS CCG (mixed)
RNA 1: B1 RNA 1
RNA 2: B1 RNA 2 with A27G, C29G, U52C, A53C
B12: target 1 MT 5'PFS UAU 3'PFS ACA (mixed)
RNA 1: B1 RNA 1
RNA 2: B1 RNA 2 with A27U, G28A, C29U, U52A, A53C, G54A
B13: target 1 MT 5'PFS GGA 3'PFS CAU (mixed)
RNA 1: B1 RNA 1
RNA 2: B1 RNA 2 with A27G, C29A, U52C, G54U
B14: target 1 MT 5'PFS GCU 3'PFS AAU (mixed)
RNA 1: B1 RNA 1
RNA 2: B1 RNA 2 with A27G, G28C, C29U, U52A, G54U
B15: target 1 MT 5'PFS GGC 3'PFS CUG (mixed)
RNA 1: B1 RNA 1
RNA 2: B1 RNA 2 with A27G, U52C, A53U
B16: target 1 MT 5'PFS GGG 3'PFS CCC (mixed)
RNA 1: B1 RNA 1
RNA 2: B1 RNA 2 with A27G, C29G, U52C, A53C, G54C
B17: target 1 MT 5'PFS GCC 3'PFS CAC (mixed)
RNA 1: B1 RNA 1
RNA 2: B1 RNA 2 with A27G, G28C, U52C, G54C
B18: target 1 insU 3' of 7,insA 3' of 3 (mixed)
RNA 1: B1 RNA 1
RNA 2: GGGAAUGGAUCCACAUCUACGAAUUCGUACCAUAGAGAGGUUAUCUCGCUACACCGAGAUCGGAAGAGCACACGU
B19: target 1 MT 5'PFS GCC 3'PFS ACU (mixed)
RNA 1: B1 RNA 1
RNA 2: B1 RNA 2 with A27G, G28C, U52A, A53C, G54U
B20: target 1 MT 5'PFS UGC 3'PFS CCG (mixed)
RNA 1: B1 RNA 1
RNA 2: B1 RNA 2 with A27U, U52C, A53C
B21: target 1 MT 5'PFS GUC 3'PFS UUA (mixed)
RNA 1: B1 RNA 1
RNA 2: B1 RNA 2 with A27G, G28U, A53U, G54A
B22: target 1 MT 5'PFS GGC 3'PFS CUC (mixed)
RNA 1: B1 RNA 1
RNA 2: B1 RNA 2 with A27G, U52C, A53U, G54C
B23: target 1 MT 5'PFS AGU 3'PFS UUG (mixed)
RNA 1: B1 RNA 1
RNA 2: B1 RNA 2 with C29U, A53U
B24: target 1 MT 5'PFS GGG 3'PFS CCU (mixed)
RNA 1: B1 RNA 1
RNA 2: B1 RNA 2 with A27G, C29G, U52C, A53C, G54U
B25: target 1 A9G,U10G (mixed)
RNA 1: B1 RNA 1
RNA 2: B1 RNA 2 with A27G, G28U, C29A, U42G, A43G, U52C, A53C
B26: target 1 MT 5'PFS UAG 3'PFS AGA (mixed)
RNA 1: B1 RNA 1
RNA 2: B1 RNA 2 with A27U, G28A, C29G, U52A, A53G, G54A
B27: target 1 MT 5'PFS GGC 3'PFS CUU (mixed)
RNA 1: B1 RNA 1
RNA 2: B1 RNA 2 with A27G, U52C, A53U, G54U
B28: target 1 MT 5'PFS GGC 3'PFS CUA (mixed)
RNA 1: B1 RNA 1
RNA 2: B1 RNA 2 with A27G, U52C, A53U, G54A
B29: target 1 MT 5'PFS GGG 3'PFS ACC (mixed)
RNA 1: B1 RNA 1
RNA 2: B1 RNA 2 with A27G, C29G, U52A, A53C, G54C
B30: target 1 MT 5'PFS UGC 3'PFS CCU (mixed)
RNA 1: B1 RNA 1
RNA 2: B1 RNA 2 with A27U, U52C, A53C, G54U
B31: target 1 MT 5'PFS GCC 3'PFS CAU (mixed)
RNA 1: B1 RNA 1
RNA 2: B1 RNA 2 with A27G, G28C, U52C, G54U
B32: target 1 MT 5'PFS GUC 3'PFS UUU (mixed)
RNA 1: B1 RNA 1
RNA 2: B1 RNA 2 with A27G, G28U, A53U, G54U
B33: target 1 MT 5'PFS GCU 3'PFS UGA (mixed)
RNA 1: B1 RNA 1
RNA 2: B1 RNA 2 with A27G, G28C, C29U, A53G, G54A
B34: target 1 MT 5'PFS UAU 3'PFS ACU (mixed)
RNA 1: B1 RNA 1
RNA 2: B1 RNA 2 with A27U, G28A, C29U, U52A, A53C, G54U
B35: target 1 insC 3' of 16,insA 3' of 4 (mixed)
RNA 1: B1 RNA 1
RNA 2: GGGAAUGGAUCCACAUCUACGAAUUCGUACCAUAGACGAGGUUAUCCGCAUCACCGAGAUCGGAAGAGCACACGU
B36: target 1 MT 5'PFS GCC 3'PFS ACA (mixed)
RNA 1: B1 RNA 1
RNA 2: B1 RNA 2 with A27G, G28C, U52A, A53C, G54A
B37: target 1 MT 5'PFS UGC 3'PFS CCC (mixed)
RNA 1: B1 RNA 1
RNA 2: B1 RNA 2 with A27U, U52C, A53C, G54C

The data set addresses T1, EsCas13d, nuclease-dead. Kind of data set: crRNA (strand 1, pre-loaded); Mg2+; 40 mM Tris-HCl pH 7.5, 150 mM NaCl, 6 mM MgCl2, 1 mM DTT, 0.1% Tween-20, 0.2 mg/ml BSA; 25 C; 10 min per concentration, then washed. Particulars: tags: His6-TwinStrep-SUMO cleaved; N-terminal SNAP kept (SNAP-Surface 488); label: 3' end held by stalled T7 RNA polymerase.
Take B1: the Kd (usually the concentration at which binding is half-saturated) is 17 ± 6.5 nM.

B2 displayed a Kd of 36 ± 15 nM.

For B3, the Kd was determined as 13.9 ± 3.7 nM.

Regarding B4, the affinity, expressed as Kd, was 28.5 ± 5 nM.

Molecule B5 registered a Kd of 38 ± 7 nM.

The molecule B6 yielded a Kd of 30.5 ± 9 nM.

In the case of B7, the Kd is around 70 nM.

B8 showed a Kd of around 80 nM.

In the case of B9, the Kd stood at 56.5 ± 16 nM.

For B10, the Kd was around 12 nM.

The molecule B11 registered a dissociation constant (Kd) of 15.1 ± 3.45 nM.

In the case of B12, binding was characterised by a dissociation constant (Kd) of 54 ± 20.5 nM. Compared with the last molecule, the Kd is about 3.6-fold higher.

As to B13, binding was characterised by a dissociation constant (Kd) of 50.5 ± 18 nM.

Regarding B14, the Kd is around 82.5 nM.

In turn, B15 registered a Kd of 17.3 ± 4 nM.

In the case of B16, the Kd is around 50 nM.

For the molecule B17, the Kd was around 34 nM.

B18 gave a Kd of 20.4 ± 1.3 nM.

Molecule B19 came in with a dissociation constant (Kd) of 11.2 ± 2.05 nM.

Take B20: the affinity, expressed as Kd, was 11.8 ± 3.85 nM.

In turn, B21 showed a Kd of 12.2 ± 2.45 nM.

B22: the Kd is 17.1 ± 7.05 nM.

On to B23, for which the Kd is 47 ± 17 nM.

B24 showed a Kd of 18.5 ± 7 nM.

For the molecule B25, the affinity, expressed as Kd, was 37 ± 4 nM.

Regarding B26, the Kd was 30 ± 5.5 nM.

Molecule B27 had a Kd of 11.3 ± 2.25 nM.

With B28, the affinity, expressed as Kd, was 15.2 ± 4.25 nM.

B29 gave a Kd of 25.5 ± 8.5 nM.

As to B30, the Kd worked out at 15.5 ± 4.5 nM.

In the case of B31, the Kd was around 12 nM.

For B32, binding was characterised by a dissociation constant (Kd) of 15.1 ± 4.3 nM.

In the case of B33, the Kd was 100 ± 40 nM.

Consider B34, for which the affinity, expressed as Kd, was 29 ± 5 nM.

For the molecule B35, the affinity, expressed as Kd, was 38 ± 17 nM.

Molecule B36 had a Kd of around 64 nM.

Molecule B37 had a Kd of around 23 nM.
